Test results reported in publication PMC11437124 (Nature Communications, 2024).

B1: antibody 3.22B9 (antibody, V domains shown)
VH: AVQVVESGGGLVQPKGSLKISCAVSGFTFSDAAMHWVRQAPGKGLEWVARIRTKPNSYATYYADSVKGRFIISRDDSKNMVYLQMDNLKIEDTAMYYCTAGTTTAPFDYWGQGVMVTVSS
VL: DIVMIQSPSSVAVSAGETVTINCKSSQSLLYSGDHKNYLAWFQQKPGQSPKLLIYWASTRLSDVPDRVIGSGSGTDFTLTISSVQAEDLATYYCQQYYDTPLTFGSGTKVEIK
B2: hu3.10C2 G106hD (antibody, V domains shown)
VH: EVQLVESGGGLVQPGGSLKLSCATSGFPFSNVWMHWVRQASGKGLEWIAHIKAKSDNYATYYAESVKGRFTISRDDSKTTIYLQMNSLKTEDTAVYYCTDLDYWGQGTTVTVSS
VL: DVVMTQSPLSLPVTPGEPASISCRSSRSLLTSKGITSLYWYLQKPGQSPQLLIYRMSNLASGIPDRFSGSGSGTDFTLKISRVEAEDVGVYYCAQFLVYPYTFGPGTKVEIK
B3: hu3.10C2 D116hE (antibody, V domains shown)
VH: EVQLVESGGGLVQPGGSLKLSCATSGFPFSNVWMHWVRQASGKGLEWIAHIKAKSDNYATYYAESVKGRFTISRDDSKTTIYLQMNSLKTEDTAVYYCTGLEYWGQGTTVTVSS
VL: DVVMTQSPLSLPVTPGEPASISCRSSRSLLTSKGITSLYWYLQKPGQSPQLLIYRMSNLASGIPDRFSGSGSGTDFTLKISRVEAEDVGVYYCAQFLVYPYTFGPGTKVEIK
B4: hu3.10C2 I107h insertion (antibody, V domains shown)
VH: EVQLVESGGGLVQPGGSLKLSCATSGFPFSNVWMHWVRQASGKGLEWIAHIKAKSDNYATYYAESVKGRFTISRDDSKTTIYLQMNSLKTEDTAVYYCTGILDYWGQGTTVTVSS
VL: DVVMTQSPLSLPVTPGEPASISCRSSRSLLTSKGITSLYWYLQKPGQSPQLLIYRMSNLASGIPDRFSGSGSGTDFTLKISRVEAEDVGVYYCAQFLVYPYTFGPGTKVEIK
B5: hu3.10C2 G106hD/D116hE (antibody, V domains shown)
VH: EVQLVESGGGLVQPGGSLKLSCATSGFPFSNVWMHWVRQASGKGLEWIAHIKAKSDNYATYYAESVKGRFTISRDDSKTTIYLQMNSLKTEDTAVYYCTDLEYWGQGTTVTVSS
VL: DVVMTQSPLSLPVTPGEPASISCRSSRSLLTSKGITSLYWYLQKPGQSPQLLIYRMSNLASGIPDRFSGSGSGTDFTLKISRVEAEDVGVYYCAQFLVYPYTFGPGTKVEIK
B6: hu3.10C2 I107h insertion/D116hE (antibody, V domains shown)
VH: EVQLVESGGGLVQPGGSLKLSCATSGFPFSNVWMHWVRQASGKGLEWIAHIKAKSDNYATYYAESVKGRFTISRDDSKTTIYLQMNSLKTEDTAVYYCTGILEYWGQGTTVTVSS
VL: DVVMTQSPLSLPVTPGEPASISCRSSRSLLTSKGITSLYWYLQKPGQSPQLLIYRMSNLASGIPDRFSGSGSGTDFTLKISRVEAEDVGVYYCAQFLVYPYTFGPGTKVEIK
B7: hu3.10C2 G106hD/I107h insertion/D116hE (antibody, V domains shown)
VH: EVQLVESGGGLVQPGGSLKLSCATSGFPFSNVWMHWVRQASGKGLEWIAHIKAKSDNYATYYAESVKGRFTISRDDSKTTIYLQMNSLKTEDTAVYYCTDILEYWGQGTTVTVSS
VL: DVVMTQSPLSLPVTPGEPASISCRSSRSLLTSKGITSLYWYLQKPGQSPQLLIYRMSNLASGIPDRFSGSGSGTDFTLKISRVEAEDVGVYYCAQFLVYPYTFGPGTKVEIK
B8: R18-12-25 (antibody, V domains shown)
VH: AVQLVESGGGLVRPQESLKISCAASGFTFRDTAMYWVRQAPGKGLEWVARIRTKPNDYATYFADSVKGRFTISRDDSKSMVYLQMDTLKTEDTAMYYCTAPINNWDWFAYWGQGTLVTVSS
VL: DIVMTQSPSSLAVSAGETVTIDCKSSQSLLYSGNQKTYLAWYQQKPGQSPKLLIYWASTRQSGVPDRFIGSGSGTDFTLTISSVQAEDLAIYYCQQYYDTPLTFGSGTKLEIK
B9: R18-13-27 (antibody, V domains shown)
VH: AVQLVESGGGLVQPKESLKISCAASGFTFSNAAMYWVRQAPGKGLEWVARIRTKPNYHATYYADSVKGRFTISRDDSKSMVYLQMDNLKAEDTAIYYCAASVLYTADSLDYWGQGVMVTVSS
VL: DIVMTQSPSSLAVSAGETVTIDCKSSQSLLYSGNQKTYLAWYQQKPGQSPKLLIYWASTRQSGVPDRFIGSGSGTDFTLTISSVQAEDLAIYYCQQYYDTPLTFGSGTKLEIK
B10: R18-13-28 (antibody, V domains shown)
VH: AVQLVESGGGLVQPKESLKISCAASGFTFSNAAMYWVRQAPGKGLEWVARIRTKTNNYATNYADSVKGRFTISRDDSKSMVYLQMDNLKTEDTAMYYCSAARGGWYLWLDYWGQGVMVTVAS
VL: DIVMTQSPSSLAVSAGETVTIDCKSSQSLLYSGNQKTYLAWYQQKPGQSPKLLIYWASTRQSGVPDRFIGSGSGTDFTLTISSVQAEDLAIYYCQQYYDTPLTFGSGTKLEIK
B11: R18-13-29 (antibody, V domains shown)
VH: AVQLVESGGGLVQPKESLKVSCAASGFTFSNADIYWVRQAPGKGLEWVARIRTKPNNYATYYGDSVKGRFTISRDDSKSMVYLQMDNLKTEDTAMYYCTAGEGLWVNYFDYWGQGVMVTVSS
VL: DIVMTQSPSSLAVSAGETVTIDCKSSQSLLYSGNQKTYLAWYQQKPGQSPKLLIYWASTRQSGVPDRFIGSGSGTDFTLTISSVQAEDLAIYYCQQYYDTPLTFGSGTKLEIK
B12: R18-13-30 (antibody, V domains shown)
VH: AVQLVESGGGLVQPKESLKVSCAASGFTFSHAAMYWVRQAPGKGLEWVARITTEPNNYATNYADSVKGRFTISRDDSKSMVFLQMDNMKTEDTAMYYCTAEVRVYPYYFDYWGQGVMVTVSS
VL: DIVMTQSPSSLAVSAGETVTIDCKSSQSLLYSGNQKTYLAWYQQKPGQSPKLLIYWASTRQSGVPDRFIGSGSGTDFTLTISSVQAEDLAIYYCQQYYDTPLTFGSGTKLEIK
B13: R18-13-31 (antibody, V domains shown)
VH: AVQLVESGGGLVQPIESLKISCAASGFTFTNAAMYWVRQAPGKGLEWIARIRTKPNDYATYYADSVKGRFTISRDDSESVVYLQMDNLKTEDTATYYCTAAWDYYSSAFDYWGQGVMVTVSS
VL: DIVMTQSPSSLAVSAGETVTIDCKSSQSLLYSGNQKTYLAWYQQKPGQSPKLLIYWASTRQSGVPDRFIGSGSGTDFTLTISSVQAEDLAIYYCQQYYDTPLTFGSGTKLEIK
B14: R18-13-32 (antibody, V domains shown)
VH: AVQLVESGGGLVQPKESLKISCAASGFTFSYAAMYWVRQAPGKGLEWVARIRSKPNNYATYYADSVKGRFTISRDDSKSMVYLQMDNLKTEDTAMYYCTAPYYYDGSPFEYWGQGVMVTVSS
VL: DIVMTQSPSSLAVSAGETVTIDCKSSQSLLYSGNQKTYLAWYQQKPGQSPKLLIYWASTRQSGVPDRFIGSGSGTDFTLTISSVQAEDLAIYYCQQYYDTPLTFGSGTKLEIK
B15: R18-13-35 (antibody, V domains shown)
VH: AVQLVESGGGLVQPRESLKISCAASGFTFSNAAMYWVRQAPGKGLEWVARIRTKANNYATNYADSLKGRFIISRDDSKSVVYLQMGNLKPEDTAMYYCTAGDTMGPHWFVYWGQGTLVTVSS
VL: DIVMTQSPSSLAVSAGETVTIDCKSSQSLLYSGNQKTYLAWYQQKPGQSPKLLIYWASTRQSGVPDRFIGSGSGTDFTLTISSVQAEDLAIYYCQQYYDTPLTFGSGTKLEIK
B16: R19-11-36 (antibody, V domains shown)
VH: AVQLVESGGGLVQPKESLKISCAAAGFTFTSAAMYWVRQAPGKGLEWIARIRTKADNIATNYADSVKGRFTISRDDSKNMVYLQMDDLKTEDTAMYYCTAGITTGGFEYWGQGVMVTVSS
VL: DIVMTQSPSSLAVSAGETVTIDCKSSQSLLYSGNQKTYLAWYQQKPGQSPKLLIYWASTRQSGVPDRFIGSGSGTDFTLTISSVQAEDLAIYYCQQYYDTPLTFGSGTKLEIK
B17: R19-11-37 (antibody, V domains shown)
VH: AVQLVESGGGLVQPKESLKISCAASGFTFSNAAMYWVRQAPGKGLEWVARIRTKPNNYATYYADSVKGRFTISRDDSKSMVYLQMDNLKTEDTAMYYCIASRYGYDFDYWGQGVMVTVSS
VL: DIVMTQSPSSLAVSAGETVTIDCKSSQSLLYSGNQKTYLAWYQQKPGQSPKLLIYWASTRQSGVPDRFIGSGSGTDFTLTISSVQAEDLAIYYCQQYYDTPLTFGSGTKLEIK
B18: R19-11-38 (antibody, V domains shown)
VH: AVQLVESGGGLVQPKESLKISCAASGFTFSNAAMYWVRQAPGKGLEWVARIRTKPNNYATYYADSVKGRFTISRDDSKSMVYLQMDNLKTEDTAMYYCTAAFYGYYFDYWGQGVMVTVSS
VL: DIVMTQSPSSLAVSAGETVTIDCKSSQSLLYSGNQKTYLAWYQQKPGQSPKLLIYWASTRQSGVPDRFIGSGSGTDFTLTISSVQAEDLAIYYCQQYYDTPLTFGSGTKLEIK
B19: R19-11-40 (antibody, V domains shown)
VH: AVQLVESGGGLVQPKESLKISCAASGFTFSNAAMFWVRQAPGEGLEWVARIRTKPNSYATYYADSVKGRFTISRDDSKSMVYLQMDNLKTEDTAMYYCTADYPGMGFDSWGQGVMVTVSS
VL: DIVMTQSPSSLAVSAGETVTIDCKSSQSLLYSGNQKTYLAWYQQKPGQSPKLLIYWASTRQSGVPDRFIGSGSGTDFTLTISSVQAEDLAIYYCQQYYDTPLTFGSGTKLEIK
B20: R19-11-41 (antibody, V domains shown)
VH: AVQLVESGGGLVQPKESLKISCAASGFTFSNAAMYWVRQAPGKGLEWVARIRTKPNNYATYYADSVKGRFTISRDDSKSMVYLQMDNLKTEDTAMYYCTAEGITTWFDYWGQGVMVTVSS
VL: DIVMTQSPSSLAVSAGETVTIDCKSSQSLLYSGNQKTYLAWYQQKPGQSPKLLIYWASTRQSGVPDRFIGSGSGTDFTLTISSVQAEDLAIYYCQQYYDTPLTFGSGTKLEIK
B21: R19-11-42 (antibody, V domains shown)
VH: AVQLVESGGGLVHPQESLKISCLASGLSFSSAAMYWVRQVPGKGLEWLARIRTKPNNYATFYADSVKGRFTISRDDSKSMVFLQMDDLNTEDTAIYYCTASVFTVAFEYWGQGVMVTVSS
VL: DIVMTQSPSSLAVSAGETVTIDCKSSQSLLYSGNQKTYLAWYQQKPGQSPKLLIYWASTRQSGVPDRFIGSGSGTDFTLTISSVQAEDLAIYYCQQYYDTPLTFGSGTKLEIK

Each binder was assayed against human TREM2 on live cells (Homo sapiens, UniProt Q9NZC2) (assay: flow cytometry on cells).
Sequence of human TREM2 on live cells (Q9NZC2 19-230): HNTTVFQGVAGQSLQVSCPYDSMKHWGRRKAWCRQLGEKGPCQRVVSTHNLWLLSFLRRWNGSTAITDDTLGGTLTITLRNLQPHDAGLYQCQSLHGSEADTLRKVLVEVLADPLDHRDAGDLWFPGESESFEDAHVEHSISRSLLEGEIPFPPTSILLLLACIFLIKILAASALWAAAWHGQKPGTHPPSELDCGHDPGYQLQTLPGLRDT

Binder	binding result
B1	binds

What follows are binders tested against T1, human TREM2 extracellular domain (ECD) (Homo sapiens, UniProt Q9NZC2) (assay: SPR).
T1 sequence (Q9NZC2 19-174): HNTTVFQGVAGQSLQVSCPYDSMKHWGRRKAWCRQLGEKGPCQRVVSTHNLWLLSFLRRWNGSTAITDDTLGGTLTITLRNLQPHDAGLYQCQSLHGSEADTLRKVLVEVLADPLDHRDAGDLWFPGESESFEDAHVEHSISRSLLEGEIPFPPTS

Binder	binding result
B2	binds
B3	binds
B4	binds
B5	binds
B6	binds
B7	binds

What follows are binders tested against T1, human TREM2 extracellular domain (ECD) (assay: not given).

Binder	binding result
B8	binds
B9	binds
B10	binds
B11	binds
B12	binds
B13	binds
B14	binds
B15	binds
B16	binds
B17	binds
B18	binds
B19	binds
B20	binds
B21	binds
